Literature values as cited in PMC12192639.

Experiments:
[1] = biological target: SSB C-terminal peptide last eight amino acids (Escherichia coli) (UniProt P0AGE0)
RecO (Escherichia coli) = RecO (Escherichia coli) (UniProt B1XB39)

UniProt P0AGE0, sequence (P0AGE0 whole entry, looked up): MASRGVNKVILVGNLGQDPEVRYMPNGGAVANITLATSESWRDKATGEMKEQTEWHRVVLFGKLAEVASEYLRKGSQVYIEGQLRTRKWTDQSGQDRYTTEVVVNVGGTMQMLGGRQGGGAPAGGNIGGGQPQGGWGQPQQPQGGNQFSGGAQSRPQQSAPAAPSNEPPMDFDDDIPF

Kd (RecO (Escherichia coli)) [nM] | Substance | Kd [1] [nM]
– | RecO (from UniProt B1XB39) | 150
126 | RecR (from UniProt C4ZUS6) | –
